Measurements taken from article doi:10.1101/089938.

Biological target: Alanine racemase (Alr) from Streptomyces coelicolor A3(2), His6-tagged (Streptomyces coelicolor A3(2)) (UniProt O86786)
Assay: SEC

Alanine racemase (Alr) from Streptomyces coelicolor A3(2), His6-tagged (from UniProt O86786 1-391) (enzyme)
stoichiometry N: 2
